Experiments:
PD-L1 (human) [1] = assay: flow cytometry, cells expressing PD-L1
CD28 (human) [2] = biological target: CD28 (human) (UniProt P10747); assay: flow cytometry, cells expressing CD28
CTLA-4 (human) [3] = assay: flow cytometry, cells expressing CTLA-4
human PD-1 (human) = human PD-1 (human) (UniProt Q15116)
PD-1-Fc (human) = PD-1-Fc (human) (UniProt Q15116); assay: ForteBio Octet, PD-1 on anti-human capture sensor, 100 nM
CTLA-4 (human) [4] = assay: flow cytometry, CHO cells expressing CTLA4
PD-L1 (human) [5] = assay: flow cytometry, CHO cells expressing PD-L1
CD28 (human) [6] = biological target: CD28 (human) (UniProt P10747); assay: flow cytometry, Jurkat cells (CD28)

CTLA-4 (human), sequence (chain, as listed by the source): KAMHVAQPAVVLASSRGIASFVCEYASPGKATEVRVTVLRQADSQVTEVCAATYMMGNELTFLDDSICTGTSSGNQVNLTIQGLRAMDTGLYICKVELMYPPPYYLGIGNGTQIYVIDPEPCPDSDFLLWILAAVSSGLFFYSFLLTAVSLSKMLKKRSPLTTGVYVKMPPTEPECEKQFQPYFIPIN
PD-L1 (human), sequence (chain, as listed by the source): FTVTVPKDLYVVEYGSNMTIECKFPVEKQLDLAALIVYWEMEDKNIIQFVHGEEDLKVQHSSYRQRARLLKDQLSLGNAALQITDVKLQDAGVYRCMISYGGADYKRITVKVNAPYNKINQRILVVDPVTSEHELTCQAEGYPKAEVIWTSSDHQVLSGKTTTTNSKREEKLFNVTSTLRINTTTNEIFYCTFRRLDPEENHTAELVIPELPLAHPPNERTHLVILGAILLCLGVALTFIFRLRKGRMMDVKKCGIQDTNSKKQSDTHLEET
PD-1-Fc (human), sequence (Q15116 25-167 limits assumed): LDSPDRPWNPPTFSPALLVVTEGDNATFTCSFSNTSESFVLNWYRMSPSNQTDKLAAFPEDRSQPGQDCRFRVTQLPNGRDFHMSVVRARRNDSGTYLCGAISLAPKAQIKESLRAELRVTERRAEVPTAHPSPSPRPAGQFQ
human PD-1 (human), sequence (Q15116 25-288): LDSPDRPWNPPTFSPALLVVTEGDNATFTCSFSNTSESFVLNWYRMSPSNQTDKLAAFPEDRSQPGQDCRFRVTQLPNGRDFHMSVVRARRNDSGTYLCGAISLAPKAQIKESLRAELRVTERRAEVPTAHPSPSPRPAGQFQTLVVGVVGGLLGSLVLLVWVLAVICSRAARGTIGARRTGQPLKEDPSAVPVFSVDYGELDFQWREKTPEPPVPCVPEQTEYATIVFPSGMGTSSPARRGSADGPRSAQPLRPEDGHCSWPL

Row | Binder | MFI (PD-L1 (human) [1]) [MFI] | parental ratio (PD-L1 (human) [1]) | MFI (CD28 (human) [2]) [MFI] | parental ratio (CD28 (human) [2]) | MFI (CTLA-4 (human) [3]) [MFI] | parental ratio (CTLA-4 (human) [3]) | IFN gamma levels pg/mL (MLR) (human PD-1 (human)) [pg/mL] | Fortebio Response Units (Response Units) (PD-1-Fc (human)) | Fold change to WT CD80 (CTLA-4 (human) [4]) [fold] | MFI at 33.3 nM (CTLA-4 (human) [4]) [MFI] | Fold change to WT CD80 (PD-L1 (human) [5]) [fold] | MFI at 33.3 nM (PD-L1 (human) [5]) [MFI] | Fold change to WT CD80 (CD28 (human) [6]) [fold] | MFI at 33.3 nM (CD28 (human) [6]) [MFI]
1 | variant CD80 E35D/L85Q/K93T/E95V/L97Q (Fc fusion) VIHVTKEVKEVATLSCGHNVSVEELAQTRIYWQKDKKMVLTMMSGDMNIWPEYKNRTIFDITNNLSIVILALRPSDEGTYECVVQKYEKDAFTRVHQAEVT | – | – | – | – | – | – | – | – | 1.57 | 246000 | 1.67 | 19900 | 0.02 | 400
2 | variant CD80 E35D/M47L/A71G/L85M/F92Y (Fc fusion) VIHVTKEVKEVATLSCGHNVSVEELAQTRIYWQKDKKMVLTMMSGDLNIWPEYKNRTIFDITNNLSIVILGLRPSDEGTYECVVMKYEKDAYKREHLAEVT | – | – | – | – | – | – | – | – | 1.37 | 216000 | 3.93 | 46700 | 0.14 | 2460
3 | variant CD80 E35D/T41S/M43V/M47I/L70M/A71G (Fc fusion) VIHVTKEVKEVATLSCGHNVSVEELAQTRIYWQKDKKMVLSMVSGDINIWPEYKNRTIFDITNNLSIVIMGLRPSDEGTYECVVLKYEKDAFKREHLAEVT | – | – | – | – | – | – | – | – | 1.59 | 249000 | 1.09 | 13000 | 0.15 | 2700
4 | variant CD80 E35D/M47V/N48K/V68M/K89N (Fc fusion) VIHVTKEVKEVATLSCGHNVSVEELAQTRIYWQKDKKMVLTMMSGDVKIWPEYKNRTIFDITNNLSIMILALRPSDEGTYECVVLKYENDAFKREHLAEVT | – | – | – | – | – | – | – | – | 0.01 | 807 | 7.56 | 89800 | 0.65 | 11700
5 | variant CD80 E35D/D46E/M47V/V68M/D90G/K93E (Fc fusion) VIHVTKEVKEVATLSCGHNVSVEELAQTRIYWQKDKKMVLTMMSGEVNIWPEYKNRTIFDITNNLSIMILALRPSDEGTYECVVLKYEKGAFEREHLAEVT | – | – | – | – | – | – | – | – | 1.74 | 273000 | 6.06 | 71900 | 1.5 | 27100
6 | variant CD80 E35D/M47I/T62S/L85Q (Fc fusion) VIHVTKEVKEVATLSCGHNVSVEELAQTRIYWQKDKKMVLTMMSGDINIWPEYKNRTIFDISNNLSIVILALRPSDEGTYECVVQKYEKDAFKREHLAEVT | – | – | – | – | – | – | – | – | 1.91 | 301000 | 3.79 | 45000 | 0.1 | 1760
7 | variant CD80 E35D/D46E/M47V/N63D/L85Q (Fc fusion) VIHVTKEVKEVATLSCGHNVSVEELAQTRIYWQKDKKMVLTMMSGEVNIWPEYKNRTIFDITDNLSIVILALRPSDEGTYECVVQKYEKDAFKREHLAEVT | – | – | – | – | – | – | – | – | 1.74 | 274000 | 5.88 | 69800 | 0.07 | 1330
8 | variant CD80 E35D/M47I/L85Q/D90G (Fc fusion) VIHVTKEVKEVATLSCGHNVSVEELAQTRIYWQKDKKMVLTMMSGDINIWPEYKNRTIFDITNNLSIVILALRPSDEGTYECVVQKYEKGAFKREHLAEVT | – | – | – | – | – | – | – | – | 1.57 | 248000 | 3.01 | 35700 | 0.23 | 4100
9 | variant CD80 E24G/R29D/Y31L/Q33H/K36G/M38I/T41A/M43R/M47T/F59L/E81V/L85R/K89N/A91T/F92P/K93V/R94L/H96R/N149S/C182S (Fc fusion) VIHVTKEVKEVATLSCGHNVSVEGLAQTDILWHKEGKIVLAMRSGDTNIWPEYKNRTILDITNNLSIVILALRPSDEGTYVCVVRKYENDTPVLERLAEVTLSVKADFPTPSISDFEIPTSNIRRIICSTSGGFPEPHLSWLENGEELSAINTTVSQDPETELYAVSSKLDFNMTTNHSFMSLIKYGHLRVNQTFNWNTTKQEHFPDN | 1120 | 0.06 | 1070 | 0.08 | 1020 | 0.02 | – | – | – | – | – | – | – | –
10 | variant CD80 K36G/K37Q/M38I/L40M (Fc fusion) VIHVTKEVKEVATLSCGHNVSVEELAQTRIYWQKEGQIVMTMMSGDMNIWPEYKNRTIFDITNNLSIVILALRPSDEGTYECVVLKYEKDAFKREHLAEVTLSVKADFPTPSISDFEIPTSNIRRIICSTSGGFPEPHLSWLENGEELNAINTTVSQDPETELYAVSSKLDFNMTTNHSFMCLIKYGHLRVNQTFNWNTTKQEHFPDN | 959 | 0.05 | 1170 | 0.09 | 1400 | 0.03 | – | – | – | – | – | – | – | –

The next lines start with the values.

Row | MFI (PD-L1 (human) [1]) [MFI] | parental ratio (PD-L1 (human) [1]) | MFI (CD28 (human) [2]) [MFI] | parental ratio (CD28 (human) [2]) | MFI (CTLA-4 (human) [3]) [MFI] | parental ratio (CTLA-4 (human) [3]) | IFN gamma levels pg/mL (MLR) (human PD-1 (human)) [pg/mL] | Fortebio Response Units (Response Units) (PD-1-Fc (human)) | Fold change to WT CD80 (CTLA-4 (human) [4]) [fold] | MFI at 33.3 nM (CTLA-4 (human) [4]) [MFI] | Fold change to WT CD80 (PD-L1 (human) [5]) [fold] | MFI at 33.3 nM (PD-L1 (human) [5]) [MFI] | Fold change to WT CD80 (CD28 (human) [6]) [fold] | MFI at 33.3 nM (CD28 (human) [6]) [MFI] | Binder
11 | 1580 | 0.09 | 1030 | 0.08 | 996 | 0.02 | – | – | – | – | – | – | – | – | variant CD80 R29V/M43Q/E81R/L85I/K89R/D90L/A91E/F92N/K93Q/R94G (Fc fusion) VIHVTKEVKEVATLSCGHNVSVEELAQTVIYWQKEKKMVLTMQSGDMNIWPEYKNRTIFDITNNLSIVILALRPSDEGTYRCVVIKYERLENQGEHLAEVTLSVKADFPTPSISDFEIPTSNIRRIICSTSGGFPEPHLSWLENGEELNAINTTVSQDPETELYAVSSKLDFNMTTNHSFMCLIKYGHLRVNQTFNWNTTKQEHFPDN
12 | – | – | – | – | – | – | 1820 | 0.007 | – | – | – | – | – | – | variant PD-L2 IgV H15Q Fc fusion (Fc fusion) LFTVTVPKELYIIEQGSNVTLECNFDTGSHVNLGAITASLQKVENDTSPHRERATLLEEQLPLGKASFHIPQVQVRDEGQYQCIIIYGVAWDYKYLTLKVKA
13 | – | – | – | – | – | – | – | 1.28 | – | – | – | – | – | – | variant PD-L2 IgV I13V/E44D/Q82R/V89D Fc fusion (Fc fusion) LFTVTVPKELYIVEHGSNVTLECNFDTGSHVNLGAITASLQKVDNDTSPHRERATLLEEQLPLGKASFHIPQVQVRDEGQYRCIIIYGDAWDYKYLTLKVKA
14 | – | – | – | – | – | – | – | – | 1.64 | 258000 | 2.58 | 30700 | 0.19 | 3510 | variant CD80 Q27H/E35D/M47I/L85Q/D90G (Fc fusion) VIHVTKEVKEVATLSCGHNVSVEELAHTRIYWQKDKKMVLTMMSGDINIWPEYKNRTIFDITNNLSIVILALRPSDEGTYECVVQKYEKGAFKREHLAEVT
15 | – | – | – | – | – | – | – | – | – | 246000 | – | – | – | 15300 | variant CD80 V22A/E35D/M47I/Y87N (Fc fusion) VIHVTKEVKEVATLSCGHNVSAEELAQTRIYWQKDKKMVLTMMSGDINIWPEYKNRTIFDITNNLSIVILALRPSDEGTYECVVLKNEKDAFKREHLAEVT
16 | – | – | – | – | – | – | – | – | 0.74 | 117000 | 2.62 | 31200 | 0.04 | 644 | variant CD80 Q33L/E35D/M47I/N48D/A71G (Fc fusion) VIHVTKEVKEVATLSCGHNVSVEELAQTRIYWLKDKKMVLTMMSGDIDIWPEYKNRTIFDITNNLSIVILGLRPSDEGTYECVVLKYEKDAFKREHLAEVT
17 | – | – | – | – | – | – | – | – | 0.03 | 4690 | 0.13 | 1590 | 0.02 | 336 | variant CD80 R29H/E35D/M43V/M47I/I49V (Fc fusion) VIHVTKEVKEVATLSCGHNVSVEELAQTHIYWQKDKKMVLTMVSGDINVWPEYKNRTIFDITNNLSIVILALRPSDEGTYECVVLKYEKDAFKREHLAEVT

— US20250163127A1
